# Laboratory results taken from patent publication US20240376185A1 (SMIVET B V, published 2024).
# Positions count from the first letter of the chain named.
# B1: SVT08L (VHH)
# VHH: QVQLQESGGGSVQAGGSLRLSCTASEFSYNDYTIAWFRRAAGKGRVEDGEGVASITTSYDRAYDNRIHYGDSVKGRFTISRDNAKNTVYLQMTNLNPSDTAVYYCGLDITPPGGIGASLTEGFLFDYWGQGTQVTVSS
# B2: SVT06L (VHH)
# VHH: QVQLQESGGGSVQAGGSLRLSCTASELSYDDYTIAWFRRAAGEGRVEDGEGVASITKSYDRAYDNKINYGHSVKGRFTISRDNAKNTVYLQMTDLLPSDTAVYYCALDITPPGGVGASLTEGFLFDYWGQGTQVTVSS
# B3: SVT22 (VHH)
# VHH: QVQLQESGGGLVQAGESLRLSCTASGISFDDYAIGWFRQAPGQQRKGVACISKADGRTDYLGSVKGRFTLSTDNTKNTVHLQMNNLKPEDTALYTCAAEYKSCGMGYKPIDYWGQGMQVTVSS
# B4: SVT05 (VHH)
# VHH: QVQLQESGGGLVQPGGSLRLSCSASGFSFTDDYGIGWFRSGPGKGREAVAPIADREAVAAIALSDGNTYYSASAKGRFTISRDNAKSTAYLQMNNLKPEDTATYYCAADFWGYGMSWPMATLWEYWGQGIQVTVSS
# B5: SVT15L (VHH)
# VHH: QVQLQESGGGLVQTGGSLRLSCRASGRAFANYHFGWFRQAPGKDREFVASISWKGGSTYYANFALGRFTSSVDRAESSVYLQMSGLTPEDTATYYCAAHDGGDWNYHTGMDYWGKGILVTVSS
# B6: SVT15L-3FW4M (VHH)
# VHH: B5 VHH with K115Q, I117T, L118Q
# Assays:
# [1] = biological target: T1, tetanus neurotoxin (TeNT), authentic tetanus holotoxin (Clostridium tetani, UniProt P04958 2-1315); assay: ELISA, directly coated TeNT, unlabelled binder
# Target sequence in this assay (P04958 2-457 limits assumed, chain 1 of 2): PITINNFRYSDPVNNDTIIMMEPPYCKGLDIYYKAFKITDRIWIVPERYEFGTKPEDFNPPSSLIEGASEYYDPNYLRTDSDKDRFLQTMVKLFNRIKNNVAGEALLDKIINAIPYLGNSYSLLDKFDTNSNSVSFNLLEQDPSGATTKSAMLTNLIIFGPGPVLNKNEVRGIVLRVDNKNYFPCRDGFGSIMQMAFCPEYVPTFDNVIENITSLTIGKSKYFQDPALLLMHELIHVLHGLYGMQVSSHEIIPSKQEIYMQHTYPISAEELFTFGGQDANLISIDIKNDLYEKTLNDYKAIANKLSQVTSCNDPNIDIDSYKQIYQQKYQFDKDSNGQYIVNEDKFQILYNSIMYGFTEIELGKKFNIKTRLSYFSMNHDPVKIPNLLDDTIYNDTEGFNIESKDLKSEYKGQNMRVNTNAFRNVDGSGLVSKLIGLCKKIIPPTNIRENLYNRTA
# Target sequence in this assay (P04958 458-1315 limits assumed, chain 2 of 2): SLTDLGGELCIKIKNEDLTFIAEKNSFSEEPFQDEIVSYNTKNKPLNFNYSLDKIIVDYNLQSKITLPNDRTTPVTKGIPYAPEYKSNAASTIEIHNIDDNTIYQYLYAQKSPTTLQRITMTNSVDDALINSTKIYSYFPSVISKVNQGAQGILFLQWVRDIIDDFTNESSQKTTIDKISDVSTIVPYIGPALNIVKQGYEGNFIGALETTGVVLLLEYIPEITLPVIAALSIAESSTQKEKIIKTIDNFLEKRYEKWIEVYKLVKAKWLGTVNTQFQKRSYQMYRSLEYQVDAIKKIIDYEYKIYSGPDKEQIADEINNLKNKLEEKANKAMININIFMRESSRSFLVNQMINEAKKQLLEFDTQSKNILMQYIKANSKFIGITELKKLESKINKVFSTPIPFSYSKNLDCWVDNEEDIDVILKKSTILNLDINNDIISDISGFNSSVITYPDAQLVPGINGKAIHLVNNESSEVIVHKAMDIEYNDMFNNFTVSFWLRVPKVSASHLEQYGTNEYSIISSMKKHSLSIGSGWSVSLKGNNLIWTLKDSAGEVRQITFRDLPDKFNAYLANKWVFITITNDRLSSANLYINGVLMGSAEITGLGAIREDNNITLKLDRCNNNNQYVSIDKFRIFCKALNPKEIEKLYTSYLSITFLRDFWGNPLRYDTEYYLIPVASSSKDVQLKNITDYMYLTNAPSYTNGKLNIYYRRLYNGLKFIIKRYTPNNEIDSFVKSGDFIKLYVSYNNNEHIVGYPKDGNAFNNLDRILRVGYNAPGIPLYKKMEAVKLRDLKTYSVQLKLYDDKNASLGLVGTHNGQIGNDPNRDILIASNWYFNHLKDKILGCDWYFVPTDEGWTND
# [2] = biological target: T1, tetanus neurotoxin (TeNT), authentic …; assay: competition ELISA on TeNT, binder biotinylated; competitor SVT34L
# [3] = biological target: T1, tetanus neurotoxin (TeNT), authentic …; assay: competition ELISA on TeNT, binder biotinylated; competitor SVT03L
# Target sequence in this assay (P04958 2-457 limits assumed, chain 1 of 2): as the sequence (P04958 2-457 limits assumed, chain 1 of 2) above
# Target sequence in this assay (P04958 458-1315 limits assumed, chain 2 of 2): as the sequence (P04958 458-1315 limits assumed, chain 2 of 2) above
# [4] = biological target: T1, tetanus neurotoxin (TeNT), authentic …; assay: ELISA, directly coated TeNT, biotinylated binder
# Target sequence in this assay (P04958 2-457 limits assumed, chain 1 of 2): as the sequence (P04958 2-457 limits assumed, chain 1 of 2) above
# Target sequence in this assay (P04958 458-1315 limits assumed, chain 2 of 2): as the sequence (P04958 458-1315 limits assumed, chain 2 of 2) above
# [5] = biological target: T1, tetanus neurotoxin (TeNT), authentic …; assay: competition ELISA on TeNT, binder biotinylated; competitor SVT13L
# Target sequence in this assay (P04958 2-457 limits assumed, chain 1 of 2): as the sequence (P04958 2-457 limits assumed, chain 1 of 2) above
# Target sequence in this assay (P04958 458-1315 limits assumed, chain 2 of 2): as the sequence (P04958 458-1315 limits assumed, chain 2 of 2) above
# [6] = biological target: T1, tetanus neurotoxin (TeNT), authentic …; assay: ELISA, TeNT captured with cAb-TT2, biotinylated binder
# Target sequence in this assay (P04958 2-457 limits assumed, chain 1 of 2): as the sequence (P04958 2-457 limits assumed, chain 1 of 2) above
# Target sequence in this assay (P04958 458-1315 limits assumed, chain 2 of 2): as the sequence (P04958 458-1315 limits assumed, chain 2 of 2) above
# [7] = biological target: T1, tetanus neurotoxin (TeNT), authentic …; assay: competition ELISA on TeNT, binder biotinylated; competitor SVT22L
# [8] = biological target: T1, tetanus neurotoxin (TeNT), authentic …; assay: competition ELISA on TeNT, binder biotinylated; competitor SVT15L-3FW4M
# Target sequence in this assay (P04958 2-457 limits assumed, chain 1 of 2): as the sequence (P04958 2-457 limits assumed, chain 1 of 2) above
# Target sequence in this assay (P04958 458-1315 limits assumed, chain 2 of 2): as the sequence (P04958 458-1315 limits assumed, chain 2 of 2) above
# [9] = biological target: T1, tetanus neurotoxin (TeNT), authentic …; assay: competition ELISA on TeNT, binder biotinylated; competitor SVT06L
# [10] = biological target: T1, tetanus neurotoxin (TeNT), authentic …; assay: GT1b-TeNT inhibition ELISA, EC at A450 0.59
# [11] = biological target: T1, tetanus neurotoxin (TeNT), authentic …; assay: competition ELISA on TeNT, binder biotinylated; competitor mAb 6E7
# [12] = biological target: T1, tetanus neurotoxin (TeNT), authentic …; assay: competition ELISA on TeNT, binder biotinylated; competitor mAb 6F57
# [13] = biological target: T1, tetanus neurotoxin (TeNT), authentic …; assay: competition ELISA on TeNT, binder biotinylated; competitor SVT15L
# [14] = biological target: T1, tetanus neurotoxin (TeNT), authentic …; assay: competition ELISA on TeNT, binder biotinylated; competitor mAb 14F5
# [15] = biological target: T1, tetanus neurotoxin (TeNT), authentic …; assay: GT1b-TeNT inhibition ELISA, unlabelled binder
# [16] = biological target: T1, tetanus neurotoxin (TeNT), authentic …; assay: competition ELISA on TeNT, binder biotinylated; competitor SVT16L
# [17] = biological target: T1, tetanus neurotoxin (TeNT), authentic …; assay: competition ELISA on TeNT, binder biotinylated; competitor mAb 11n185
# [18] = biological target: T1, tetanus neurotoxin (TeNT), authentic …; assay: competition ELISA on TeNT, binder biotinylated; competitor SVT08L
# [19] = biological target: T1, tetanus neurotoxin (TeNT), authentic …; assay: competition ELISA on TeNT, binder biotinylated; competitor SVT02L
# [20] = biological target: T1, tetanus neurotoxin (TeNT), authentic …; assay: ELISA, TeNT captured with cAb-TT2, unlabelled binder
# [21] = biological target: T2, recombinant tetanus toxin fragment C (rTTC) (Clostridium tetani, UniProt P04958 865-1315); assay: ELISA, directly coated rTTC, unlabelled binder
# T2 sequence: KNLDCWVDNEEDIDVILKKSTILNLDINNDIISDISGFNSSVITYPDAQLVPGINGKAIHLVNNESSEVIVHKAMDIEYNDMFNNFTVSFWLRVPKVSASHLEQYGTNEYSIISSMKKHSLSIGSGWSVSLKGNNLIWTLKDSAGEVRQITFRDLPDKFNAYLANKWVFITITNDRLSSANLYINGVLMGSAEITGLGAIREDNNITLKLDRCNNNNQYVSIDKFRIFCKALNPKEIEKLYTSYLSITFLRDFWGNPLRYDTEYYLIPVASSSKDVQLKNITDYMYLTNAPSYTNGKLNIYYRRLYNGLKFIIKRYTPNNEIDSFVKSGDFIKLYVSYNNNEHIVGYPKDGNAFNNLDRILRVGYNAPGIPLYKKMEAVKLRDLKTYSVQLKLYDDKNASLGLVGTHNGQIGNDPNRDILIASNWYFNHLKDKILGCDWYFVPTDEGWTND
# [22] = biological target: T3, recombinant tetanus toxin fragment C (rTTC) (Clostridium tetani, UniProt P04958 865-1315); assay: ELISA, directly coated rTTC, E. coli supernatant
# T3 sequence: T2 sequence
# [23] = biological target: T4, tetanus neurotoxin (TeNT), authentic tetanus holotoxin (Clostridium tetani, UniProt P04958 2-1315); assay: ELISA, directly coated TeNT, E. coli supernatant
# [24] = biological target: T4, tetanus neurotoxin (TeNT), authentic …; assay: ELISA, cAb-TT2 captured TeNT, E. coli supernatant
# [25] = biological target: T4, tetanus neurotoxin (TeNT), authentic …; assay: GT1b-TeNT inhibition ELISA (no SDA: 1.302, 1.257)
# [26] = biological target: T5, tetanus neurotoxin (TeNT), authentic tetanus holotoxin (Clostridium tetani, UniProt P04958 2-1315); assay: bridging ELISA: coated TeNT, SDA, biotinylated TeNT, StrepPO (bivalent binding)
# [27] = biological target: T5, tetanus neurotoxin (TeNT), authentic …; assay: ELISA: directly coated TeNT, goat anti-llama Ig PO
# [28] = biological target: T5, tetanus neurotoxin (TeNT), authentic …; assay: ELISA: directly coated TeNT, anti-his6 PO
# [29] = biological target: T5, tetanus neurotoxin (TeNT), authentic …; assay: GT1b-TeNT inhibition ELISA
# [30] = biological target: T5, tetanus neurotoxin (TeNT), authentic …; assay: GT1b-TeNT inhibition ELISA; remark: listed apart in the source
# [31] = biological target: T5, tetanus neurotoxin (TeNT), authentic …; assay: ELISA: directly coated TeNT, goat anti-llama Ig PO; remark: listed apart in the source
# [32] = biological target: T5, tetanus neurotoxin (TeNT), authentic …; assay: bridging ELISA: coated TeNT, SDA, biotinylated TeNT, StrepPO (bivalent binding); remark: listed apart in the source
# [33] = biological target: T5, tetanus neurotoxin (TeNT), authentic …; assay: ELISA: directly coated TeNT, anti-his6 PO; remark: listed apart in the source
Binder,EC resulting in A450 0.2 [1] [ng/mL],maximal absorbance at 450 nm [1],% inhibition of binding [2] [%],% inhibition of binding [3] [%],EC resulting in A450 0.4 [4] [ng/mL],maximal absorbance at 450 nm [4],% inhibition of binding [5] [%],EC resulting in A450 0.2 [6] [ng/mL],maximal absorbance at 450 nm [6],% inhibition of binding [7] [%],% inhibition of binding [8] [%],% inhibition of binding [9] [%],concentration giving A450 of 0.59 [10] [µg/mL],% inhibition of binding [11] [%],% inhibition of binding [12] [%],% inhibition of binding [13] [%],% inhibition of binding [14] [%],minimal absorbance at 450 nm [15],% inhibition of binding [16] [%],% inhibition of binding [17] [%],also measured
B1,2.2,1.37,8,0,0.4,1.57,5,0.52,1.2,6,12,95,0.411,66,50,6,3,0.486,8,4,% inhibition of binding [18]: 96%; % inhibition of binding [19]: 7%; EC resulting in A450 0.15 [20]: 3.6 ng/mL; maximal absorbance at 450 nm [20]: 0.36; maximal absorbance at 450 nm [21]: 0.502
B2,1.7,1.39,11,-3,0.39,1.51,7,0.37,1.2,3,12,96,0.317,67,53,14,11,0.481,-3,5,% inhibition of binding [18]: 97%; % inhibition of binding [19]: 11%; EC resulting in A450 0.15 [20]: 2.6 ng/mL; maximal absorbance at 450 nm [20]: 0.409; maximal absorbance at 450 nm [21]: 0.543
B3,–,–,–,–,–,–,–,–,–,–,–,–,–,–,–,–,–,–,–,–,absorbance at 450 nm [22]: 0.138 A450; absorbance at 450 nm [23]: 1.08 A450; absorbance at 450 nm [24]: 0.299 A450; absorbance at 450 nm [25]: 0.137 A450
B4,–,–,–,–,–,–,–,–,–,–,–,–,–,–,–,–,–,–,–,–,absorbance at 450 nm [22]: 0.108 A450; absorbance at 450 nm [23]: 1.04 A450; absorbance at 450 nm [24]: 0.548 A450; absorbance at 450 nm [25]: 0.985 A450
B5,2.8,1.34,10,-5,2.8,1.4,2,5.7,0.825,2,96,1,0.072,6,4,96,7,0.14,5,0,% inhibition of binding [18]: 15%; % inhibition of binding [19]: 6%; EC resulting in A450 0.15 [20]: 5.7 ng/mL; maximal absorbance at 450 nm [20]: 0.477; maximal absorbance at 450 nm [21]: 0.528
B6,–,–,–,–,–,–,–,–,–,–,–,–,–,–,–,–,–,–,–,–,maximal absorbance value [26]: 0.2 A450; maximal absorbance value [27]: 0.35 A450; Effective SDA Concentration at A450 0.15 [28]: 26 ng/mL; Effective SDA Concentration at A450 0.56 [29]: 31 ng/mL; minimal absorbance value (GT1b-TeNT inhibition) [30]: 0.19 A450; Effective SDA Concentration at A450 0.15 [31]: 6 ng/mL; Effective SDA Concentration at A450 0.3 [32]: > 1000 ng/mL; maximal absorbance value [33]: 0.19 A450
